Data on 10 molecules can be found in PMC13090976 (Cell Stress & Chaperones, 2026).

The labels stand for the following.
T1: full-length wild-type CHIP (Homo sapiens, UniProt Q9UNE7)
T1 construct: Recombinant CHIP-TPR (residues 21-154) and full-length CHIP proteins were expressed and purified as described; HIS; made in house
T1 sequence (Q9UNE7 1-303): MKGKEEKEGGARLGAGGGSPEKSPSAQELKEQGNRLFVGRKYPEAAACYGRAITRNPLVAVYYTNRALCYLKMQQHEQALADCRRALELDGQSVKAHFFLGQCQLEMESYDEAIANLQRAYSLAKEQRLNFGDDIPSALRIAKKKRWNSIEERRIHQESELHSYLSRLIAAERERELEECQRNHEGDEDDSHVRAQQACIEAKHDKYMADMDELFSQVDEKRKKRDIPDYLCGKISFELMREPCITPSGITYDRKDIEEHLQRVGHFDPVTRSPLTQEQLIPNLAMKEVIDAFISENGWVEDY

T2: full-length CHIP-G132N (Homo sapiens, UniProt Q9UNE7, G132N)
T2 construct: HIS; made in house
T2 sequence (Q9UNE7 1-303 G132N): T1 sequence (Q9UNE7 1-303) with G132N

T3: CHIP TPR (fluorescence polarization construct) (human)
T3 chain: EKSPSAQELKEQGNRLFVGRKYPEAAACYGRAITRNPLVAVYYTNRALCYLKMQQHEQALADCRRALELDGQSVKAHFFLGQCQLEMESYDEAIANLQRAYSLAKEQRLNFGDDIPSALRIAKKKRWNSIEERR

T4: full-length CHIP (wild-type) (human, UniProt Q9UNE7 1-303)
T4 construct: CHIP (STUB1), full length, wild-type; Vector CHIP of the JCS lab; also called CHIP-WT; STUB1
T4 sequence (looked up): T1 sequence (Q9UNE7 1-303)

T5: G132N CHIP-TPR (human, UniProt Q9UNE7 21-154, G132N)
T5 construct: CHIP (STUB1), human, TPR domain with G132N; also called G132N variant
T5 sequence (looked up): T3 chain with G112N

T6: human CHIP-TPR (residues 21-154) (human, UniProt Q9UNE7 21-154)
T6 construct: also called wild-type CHIP-TPR
T6 sequence (looked up): T3 chain

B1: CHIP TPR-CC (domain or fragment)
chain: MKGKEEKEGGARLGAGGGSPEKSPSAQELKEQGNRLFVGRKYPEAAACYGRAITRNPLVAVYYTNRALCYLKMQQHEQALADCRRALELDGQSVKAHFFLGQCQLEMESYDEAIANLQRAYSLAKEQRLNFGDDIPSALRIAKKKRWNSIEERRIHQESELHSYLSRLIAAERERELEECQRNHEGDEDDSHVRAQQACIEAKHDKYMADMDELFSQVDEKRKKR
B2: CHIP TPR (fluorescence polarization construct) (domain or fragment)
chain: T3 chain
B3: FITC-Ahx-GSGPTIEEVD (peptide)
peptide: {FITC-Ahx}-GSGPTIEEVD
notes: C-terminal tail of human HSP70 (HSPA1A); also called EEVD (fluorescence polarization tracer); unphosphorylated EEVD peptide; source: synthetic peptide (Lifetein/Genscript)
B4: biotin-GSGSGP(pT)IEEVD (peptide)
peptide: Biotin-GSGSGP[pT]IEEVD
notes: C-terminal tail of human HSP70 (HSPA1A), Thr636 phosphorylated; also called biotin-pEEVD; biotinylated pEEVD peptide; source: synthetic peptide (Lifetein/Genscript)
B5: biotin-GSGSGPTIEEVD (peptide)
peptide: Biotin-GSGSGPTIEEVD
notes: C-terminal tail of human HSP70 (HSPA1A); also called biotin-EEVD; biotinylated EEVD peptide; source: synthetic peptide (Lifetein/Genscript)
B6: G132N: structure-guided G132N substitution variant of CHIP (protein)
chain: T1 sequence (Q9UNE7 1-303) with G132N
modifications: left off: HIS, end not stated, state not stated
notes: structure-guided G132N substitution variant of CHIP

The subject of data set [1] is proteasome. The experiment in a line: Proteasome-dependent turnover of HSP70 T636 variants. It counts as cell-based. The following applies: relative to WT and T636A, Figure S3.
Data set [2] deals with T1, full-length wild-type CHIP. Description: Fluorescence polarization, full-length wild-type CHIP with HSP70 C-terminal peptide. As to conditions: Fig. 4c binding curve, value in picture; FITC-Ahx-labelled peptide 20 nM, room temperature, 30 min; n = 3 independent experiments. The source says: (§1) Plasmids were propagated in DH5α Escherichia coli and purified using Qiagen Miniprep or Bio-Rad Midiprep kits. Mutations were introduced with Q5 (NEB) or QuikChange II XL (Agilent) kits and verified by Sanger sequencing. Peptides (Lifetein/Genscript) included unphosphorylated […] (EEVD), phosphorylated GP(pT)IEEVD (pEEVD), biotin-[…] (biotin-EEVD), biotin-GSGSGP(pT)IEEVD (biotin-pEEVD), and FITC-Ahx-[…] or FITC-Ahx-GSGP(pT)IEEVD for polarization assays. Recombinant CHIP-TPR (residues 21-154) and full-length CHIP proteins were expressed and purified as described.[8], [29]
(§2) The N-terminally labeled peptides were loaded into PCR reaction tubes at 2X (40 nM), resulting in a final concentration of 20 nM. Recombinant CHIP constructs were added to the tubes at the indicated concentrations. The reaction was left at room temperature for 30 min before loading into black, low-volume, round-bottom 384-well plates (Greiner Bio-One) with inter-run triplicates at 18 μl each and subsequently repeated independently 2 more times. […] The polarization readings were normalized to the dilution buffer. Gain adjustment was made to the tracer HSP70 peptides alone.
For orientation: In fluorescence polarisation assays a small probe gives low polarisation when free and higher when bound to something large.

Data set [3] concerns the target T2, full-length CHIP-G132N. The experiment in a line: Fluorescence polarization, full-length CHIP-G132N. As to conditions: Fig. 4d binding curve, value in picture; FITC-Ahx-labelled peptide 20 nM, room temperature, 30 min; n = 3 independent experiments.
From the text: as §1, §2

The target in data set [4] is CHIP (UniProt Q9UNE7). Description: fluorescence polarization titration. The following applies: reference: unphosphorylated EEVD peptide; sites T636.
Data set [5] has as its target B3. The experiment in a line: fluorescence polarisation; FITC-labelled peptide at 20 nM, recombinant CHIP constructs added at varied concentrations, 30 min at room temperature; one-site total binding fit, normalised to % of maximum binding. As to conditions: both partners purified.
Data set [6] concerns the target T3, CHIP TPR (fluorescence polarization …). The experiment in a line: FP.
The target of data set [7] is T4, full-length CHIP (wild-type). Description: fluorescence polarisation; FITC-labelled peptide at 20 nM, recombinant CHIP constructs added at varied concentrations, 30 min at room temperature; one-site total binding fit, normalised to % of maximum binding. As to conditions: both partners purified.
Data set [8] has as its target T5, G132N CHIP-TPR. Description: BLI; BLItz, biotinylated peptide loaded on streptavidin sensors, TPR construct at 1 to 25 uM in solution; 20 mM HEPES, 150 mM NaCl, 5 mM beta-mercaptoethanol, pH 7.2; Kd = koff/kon from individual fits. The following applies: both partners purified. A general note: In BLI a coated tip is dipped into the sample, and binding shifts an interference pattern.

The target in data set [9] is T6, human CHIP-TPR (residues 21-154). Described as above. As to conditions: both partners purified.
In data set [10] the test system is HSP70. Description: Co-immunoprecipitation, steady-state HSP70-CHIP interaction. As to conditions: phosphomimetic HSP70, Figure S1. The data set is classed as cell-based.
Data set [11] relates to HSP70. Description: In vitro HSP70 ubiquitination. The data set is classed as biochemical. The following applies: Figure S2.
The subject of data set [12] is HSP70. Description: NanoBiT, transient cellular HSP70-CHIP interaction. It counts as cell-based. As to conditions: Figure S1.

Substitutions are numbered along the chain they refer to. In names and notes the source's numbering stands. Square brackets hold non-standard residues; d marks the D form. Ends that are not written are not given here. Peptide text beside a SMILES is read from it. * marks the point of attachment. FITC = O=C1OC2(c3ccc(O)cc3Oc3cc(O)ccc32)c2ccc(NC(=S)*)cc21; Biotin = O=C1N[C@H]2[C@H](CS[C@H]2CCCCC(=O)*)N1; pT = C[C@@H](OP(=O)(O)O)[C@H](N)C(=O)O; Ahx = NCCCCCC(=O)O

On to “T636D phosphomimetic: HSP70 T636D phosphomimetic variant”, for which the turnover entry in data set [1] is on record as “accelerated proteasome-dependent turnover”.
Broadly, the Kd is the equilibrium constant for the complex coming apart. As to `CC[C@H](C)[C@H](NC(=O)[C@@H](NC(=O)[C@@H]1CCCN1C(=O)CN)[C@@H](C)O)C(=O)N[C@@H](CCC(=O)O)C(=O)N[C@@H](CCC(=O)O)C(=O)N[C@H](C(=O)N[C@@H](CC(=O)O)C(=O)O)C(C)C` [EEVD] (H-GPTIEEVD-OH), the results for the Kd in data set [2] and in data set [3] were 6.5 nM and 9.2 nM, respectively.
Taken in the same sequence, the figures for `CC[C@H](C)[C@H](NC(=O)[C@@H](NC(=O)[C@@H]1CCCN1C(=O)CN)[C@@H](C)OP(=O)(O)O)C(=O)N[C@@H](CCC(=O)O)C(=O)N[C@@H](CCC(=O)O)C(=O)N[C@H](C(=O)N[C@@H](CC(=O)O)C(=O)O)C(C)C` [pEEVD, GP(pT)IEEVD] (H-GP[pT]IEEVD-OH) were 46 nM and 96 nM.
On to “HSP70 C-terminal tail (from UniProt P0DMV8) pT636 pEEVD peptide”, for which the fold change result in data set [4] is “weaker”.
As to B1, the dissociation constant (Kd) in data set [5] was 42 nM.
The same measure, in the same setting: next, B2: 28 nM.
B3: the Kd in data set [6] was 42000 nM; in [7], 7 nM.
For B4, the Kd in [8] turned out to be 1250 nM; in data set [9], 5230 nM.
As for B5, the Kd in data set [8] turned out to be 597 nM; in data set [9], 592 nM.
For the molecule B6, the “rescue of interaction in co-immunoprecipitation” value in data set [10] is on record as “no rescue”. For the same molecule, the HSP70 ubiquitination activity result in data set [11] is “retained HSP70 ubiquitination activity”. The “binding to the non-mimetic HSP70” value in data set [12] was “overall reducing binding”.
